Source: patent US20140087995A1 (published 2014)
Numbered stars: 1 amine (or outer) side, 2 acyl side, 3 side chain; on linkers, the order of the positions; unused ones are H or OH. Bridge positions count the residues as written; N and C are the ends. Side chains are listed from the residue outwards. Ends that are not written are not given here. * marks the point of attachment. C20 diacid = O=C(O)CCCCCCCCCCCCCCCCCCC(=O)*; γGlu = O=C(O)[C@H](CCC(=O)[*:2])N[*:1]

B1: N^ε1-[(4S)-4-carboxy-4-(19-carboxynonadecanoylamino)butanoyl]-[His14,Arg17,Pro21,Pro27,His35]-h-amylin (peptide)
peptide: K([γGlu-C20 diacid])CNTATCATQRLAHFLRHSSPNFGAIPSSTNVGSHTY-NH2
modifications: disulfide 2-7; N-terminus assumed
SMILES: CC[C@H](C)[C@H](NC(=O)[C@H](C)NC(=O)CNC(=O)[C@H](Cc1ccccc1)NC(=O)[C@H](CC(N)=O)NC(=O)[C@@H]1CCCN1C(=O)[C@H](CO)NC(=O)[C@H](CO)NC(=O)[C@H](Cc1c[nH]cn1)NC(=O)[C@H](CCCNC(=N)N)NC(=O)[C@H](CC(C)C)NC(=O)[C@H](Cc1ccccc1)NC(=O)[C@H](Cc1c[nH]cn1)NC(=O)[C@H](C)NC(=O)[C@H](CC(C)C)NC(=O)[C@H](CCCNC(=N)N)NC(=O)[C@H](CCC(N)=O)NC(=O)[C@@H](NC(=O)[C@H](C)NC(=O)[C@@H]1CSSC[C@H](NC(=O)[C@@H](N)CCCCNC(=O)CC[C@H](NC(=O)CCCCCCCCCCCCCCCCCCC(=O)O)C(=O)O)C(=O)N[C@@H](CC(N)=O)C(=O)N[C@@H]([C@@H](C)O)C(=O)N[C@@H](C)C(=O)N[C@@H]([C@@H](C)O)C(=O)N1)[C@@H](C)O)C(=O)N1CCC[C@H]1C(=O)N[C@@H](CO)C(=O)N[C@@H](CO)C(=O)N[C@H](C(=O)N[C@@H](CC(N)=O)C(=O)N[C@H](C(=O)NCC(=O)N[C@@H](CO)C(=O)N[C@@H](Cc1c[nH]cn1)C(=O)N[C@H](C(=O)N[C@@H](Cc1ccc(O)cc1)C(N)=O)[C@@H](C)O)C(C)C)[C@@H](C)O
notes: also called 14H, 17R, 21P, 27P, 35H
B2: N^ε1-[(4S)-4-carboxy-4-(19-carboxynonadecanoylamino)butanoyl]-[His14,Arg17,Pro21,Pro27,Pro31,Pro34]-h-amylin (peptide)
peptide: K([γGlu-C20 diacid])CNTATCATQRLAHFLRHSSPNFGAIPSSTPVGPNTY-NH2
modifications: disulfide 2-7; N-terminus assumed
SMILES: CC[C@H](C)[C@H](NC(=O)[C@H](C)NC(=O)CNC(=O)[C@H](Cc1ccccc1)NC(=O)[C@H](CC(N)=O)NC(=O)[C@@H]1CCCN1C(=O)[C@H](CO)NC(=O)[C@H](CO)NC(=O)[C@H](Cc1c[nH]cn1)NC(=O)[C@H](CCCNC(=N)N)NC(=O)[C@H](CC(C)C)NC(=O)[C@H](Cc1ccccc1)NC(=O)[C@H](Cc1c[nH]cn1)NC(=O)[C@H](C)NC(=O)[C@H](CC(C)C)NC(=O)[C@H](CCCNC(=N)N)NC(=O)[C@H](CCC(N)=O)NC(=O)[C@@H](NC(=O)[C@H](C)NC(=O)[C@@H]1CSSC[C@H](NC(=O)[C@@H](N)CCCCNC(=O)CC[C@H](NC(=O)CCCCCCCCCCCCCCCCCCC(=O)O)C(=O)O)C(=O)N[C@@H](CC(N)=O)C(=O)N[C@@H]([C@@H](C)O)C(=O)N[C@@H](C)C(=O)N[C@@H]([C@@H](C)O)C(=O)N1)[C@@H](C)O)C(=O)N1CCC[C@H]1C(=O)N[C@@H](CO)C(=O)N[C@@H](CO)C(=O)N[C@H](C(=O)N1CCC[C@H]1C(=O)N[C@H](C(=O)NCC(=O)N1CCC[C@H]1C(=O)N[C@@H](CC(N)=O)C(=O)N[C@H](C(=O)N[C@@H](Cc1ccc(O)cc1)C(N)=O)[C@@H](C)O)C(C)C)[C@@H](C)O
notes: also called 14H, 17R, 21P, 27P, 31P, 34P
B3: N^ε1-[(4S)-4-carboxy-4-(19-carboxynonadecanoylamino)butanoyl]-[His14,Arg17,Pro21,Pro27,Pro34,Pro37]-h-amylin (peptide)
peptide: K([γGlu-C20 diacid])CNTATCATQRLAHFLRHSSPNFGAIPSSTNVGPNTP-NH2
modifications: disulfide 2-7; N-terminus assumed
SMILES: CC[C@H](C)[C@H](NC(=O)[C@H](C)NC(=O)CNC(=O)[C@H](Cc1ccccc1)NC(=O)[C@H](CC(N)=O)NC(=O)[C@@H]1CCCN1C(=O)[C@H](CO)NC(=O)[C@H](CO)NC(=O)[C@H](Cc1c[nH]cn1)NC(=O)[C@H](CCCNC(=N)N)NC(=O)[C@H](CC(C)C)NC(=O)[C@H](Cc1ccccc1)NC(=O)[C@H](Cc1c[nH]cn1)NC(=O)[C@H](C)NC(=O)[C@H](CC(C)C)NC(=O)[C@H](CCCNC(=N)N)NC(=O)[C@H](CCC(N)=O)NC(=O)[C@@H](NC(=O)[C@H](C)NC(=O)[C@@H]1CSSC[C@H](NC(=O)[C@@H](N)CCCCNC(=O)CC[C@H](NC(=O)CCCCCCCCCCCCCCCCCCC(=O)O)C(=O)O)C(=O)N[C@@H](CC(N)=O)C(=O)N[C@@H]([C@@H](C)O)C(=O)N[C@@H](C)C(=O)N[C@@H]([C@@H](C)O)C(=O)N1)[C@@H](C)O)C(=O)N1CCC[C@H]1C(=O)N[C@@H](CO)C(=O)N[C@@H](CO)C(=O)N[C@H](C(=O)N[C@@H](CC(N)=O)C(=O)N[C@H](C(=O)NCC(=O)N1CCC[C@H]1C(=O)N[C@@H](CC(N)=O)C(=O)N[C@H](C(=O)N1CCC[C@H]1C(N)=O)[C@@H](C)O)C(C)C)[C@@H](C)O
notes: also called 14H, 17R, 21P, 27P, 34P, 37P
B4: N^ε1-[(4S)-4-carboxy-4-(19-carboxynonadecanoylamino)butanoyl]-[His14,Arg17,Pro21,Pro27]-h-amylin (peptide)
peptide: K([γGlu-C20 diacid])CNTATCATQRLAHFLRHSSPNFGAIPSSTNVGSNTY-NH2
modifications: disulfide 2-7; N-terminus assumed
SMILES: CC[C@H](C)[C@H](NC(=O)[C@H](C)NC(=O)CNC(=O)[C@H](Cc1ccccc1)NC(=O)[C@H](CC(N)=O)NC(=O)[C@@H]1CCCN1C(=O)[C@H](CO)NC(=O)[C@H](CO)NC(=O)[C@H](Cc1c[nH]cn1)NC(=O)[C@H](CCCNC(=N)N)NC(=O)[C@H](CC(C)C)NC(=O)[C@H](Cc1ccccc1)NC(=O)[C@H](Cc1c[nH]cn1)NC(=O)[C@H](C)NC(=O)[C@H](CC(C)C)NC(=O)[C@H](CCCNC(=N)N)NC(=O)[C@H](CCC(N)=O)NC(=O)[C@@H](NC(=O)[C@H](C)NC(=O)[C@@H]1CSSC[C@H](NC(=O)[C@@H](N)CCCCNC(=O)CC[C@H](NC(=O)CCCCCCCCCCCCCCCCCCC(=O)O)C(=O)O)C(=O)N[C@@H](CC(N)=O)C(=O)N[C@@H]([C@@H](C)O)C(=O)N[C@@H](C)C(=O)N[C@@H]([C@@H](C)O)C(=O)N1)[C@@H](C)O)C(=O)N1CCC[C@H]1C(=O)N[C@@H](CO)C(=O)N[C@@H](CO)C(=O)N[C@H](C(=O)N[C@@H](CC(N)=O)C(=O)N[C@H](C(=O)NCC(=O)N[C@@H](CO)C(=O)N[C@@H](CC(N)=O)C(=O)N[C@H](C(=O)N[C@@H](Cc1ccc(O)cc1)C(N)=O)[C@@H](C)O)C(C)C)[C@@H](C)O
notes: also called 14H, 17R, 21P, 27P
B5: N^ε1-[(4S)-4-carboxy-4-(19-carboxynonadecanoylamino)butanoyl]-[His14,Arg17,Pro21,Pro27,Pro31]-h-amylin (peptide)
peptide: K([γGlu-C20 diacid])CNTATCATQRLAHFLRHSSPNFGAIPSSTPVGSNTY-NH2
modifications: disulfide 2-7; N-terminus assumed
SMILES: CC[C@H](C)[C@H](NC(=O)[C@H](C)NC(=O)CNC(=O)[C@H](Cc1ccccc1)NC(=O)[C@H](CC(N)=O)NC(=O)[C@@H]1CCCN1C(=O)[C@H](CO)NC(=O)[C@H](CO)NC(=O)[C@H](Cc1c[nH]cn1)NC(=O)[C@H](CCCNC(=N)N)NC(=O)[C@H](CC(C)C)NC(=O)[C@H](Cc1ccccc1)NC(=O)[C@H](Cc1c[nH]cn1)NC(=O)[C@H](C)NC(=O)[C@H](CC(C)C)NC(=O)[C@H](CCCNC(=N)N)NC(=O)[C@H](CCC(N)=O)NC(=O)[C@@H](NC(=O)[C@H](C)NC(=O)[C@@H]1CSSC[C@H](NC(=O)[C@@H](N)CCCCNC(=O)CC[C@H](NC(=O)CCCCCCCCCCCCCCCCCCC(=O)O)C(=O)O)C(=O)N[C@@H](CC(N)=O)C(=O)N[C@@H]([C@@H](C)O)C(=O)N[C@@H](C)C(=O)N[C@@H]([C@@H](C)O)C(=O)N1)[C@@H](C)O)C(=O)N1CCC[C@H]1C(=O)N[C@@H](CO)C(=O)N[C@@H](CO)C(=O)N[C@H](C(=O)N1CCC[C@H]1C(=O)N[C@H](C(=O)NCC(=O)N[C@@H](CO)C(=O)N[C@@H](CC(N)=O)C(=O)N[C@H](C(=O)N[C@@H](Cc1ccc(O)cc1)C(N)=O)[C@@H](C)O)C(C)C)[C@@H](C)O
notes: also called 14H, 17R, 21P, 27P, 31P
B6: N^ε1-[(4S)-4-carboxy-4-[[(4S)-4-carboxy-4-(19-carboxynonadecanoylamino)butanoyl]amino]butanoyl]-[Asp14,Arg17,Pro21,Pro27,Arg35]-h-amylin (peptide)
peptide: K([γGlu-γGlu-C20 diacid])CNTATCATQRLADFLRHSSPNFGAIPSSTNVGSRTY-NH2
modifications: disulfide 2-7; N-terminus assumed
SMILES: CC[C@H](C)[C@H](NC(=O)[C@H](C)NC(=O)CNC(=O)[C@H](Cc1ccccc1)NC(=O)[C@H](CC(N)=O)NC(=O)[C@@H]1CCCN1C(=O)[C@H](CO)NC(=O)[C@H](CO)NC(=O)[C@H](Cc1c[nH]cn1)NC(=O)[C@H](CCCNC(=N)N)NC(=O)[C@H](CC(C)C)NC(=O)[C@H](Cc1ccccc1)NC(=O)[C@H](CC(=O)O)NC(=O)[C@H](C)NC(=O)[C@H](CC(C)C)NC(=O)[C@H](CCCNC(=N)N)NC(=O)[C@H](CCC(N)=O)NC(=O)[C@@H](NC(=O)[C@H](C)NC(=O)[C@@H]1CSSC[C@H](NC(=O)[C@@H](N)CCCCNC(=O)CC[C@H](NC(=O)CC[C@H](NC(=O)CCCCCCCCCCCCCCCCCCC(=O)O)C(=O)O)C(=O)O)C(=O)N[C@@H](CC(N)=O)C(=O)N[C@@H]([C@@H](C)O)C(=O)N[C@@H](C)C(=O)N[C@@H]([C@@H](C)O)C(=O)N1)[C@@H](C)O)C(=O)N1CCC[C@H]1C(=O)N[C@@H](CO)C(=O)N[C@@H](CO)C(=O)N[C@H](C(=O)N[C@@H](CC(N)=O)C(=O)N[C@H](C(=O)NCC(=O)N[C@@H](CO)C(=O)N[C@@H](CCCNC(=N)N)C(=O)N[C@H](C(=O)N[C@@H](Cc1ccc(O)cc1)C(N)=O)[C@@H](C)O)C(C)C)[C@@H](C)O
notes: also called 14D, 17R, 21P, 27P, 35R

target: T1, human amylin receptor (human, UniProt P30988 25-474; O60896 24-148, limits assumed); test: SPA competition binding, displacement of 125I-rat amylin from membranes with human amylin 3(a) receptor (Assay V)
T1 construct: whole, on cells; Calcitonin receptor plus RAMP-3 gives the amylin 3(a) receptor; membranes of Amylin 3(a)/CRE-luc cells were used; also called hAmylin-R; hAmylinR
T1 sequence (looked up) 1: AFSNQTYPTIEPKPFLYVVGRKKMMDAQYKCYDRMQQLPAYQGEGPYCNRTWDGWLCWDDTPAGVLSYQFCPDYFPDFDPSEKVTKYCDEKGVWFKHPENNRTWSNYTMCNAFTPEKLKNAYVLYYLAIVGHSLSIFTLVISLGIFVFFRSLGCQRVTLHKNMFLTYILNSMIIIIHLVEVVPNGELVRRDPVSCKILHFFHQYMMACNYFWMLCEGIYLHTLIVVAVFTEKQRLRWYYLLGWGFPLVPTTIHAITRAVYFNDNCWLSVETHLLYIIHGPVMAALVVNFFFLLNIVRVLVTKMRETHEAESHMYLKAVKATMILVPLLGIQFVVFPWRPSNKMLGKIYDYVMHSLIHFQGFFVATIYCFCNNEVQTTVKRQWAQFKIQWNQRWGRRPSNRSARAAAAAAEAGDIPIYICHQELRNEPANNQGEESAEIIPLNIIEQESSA
T1 sequence (looked up) 2: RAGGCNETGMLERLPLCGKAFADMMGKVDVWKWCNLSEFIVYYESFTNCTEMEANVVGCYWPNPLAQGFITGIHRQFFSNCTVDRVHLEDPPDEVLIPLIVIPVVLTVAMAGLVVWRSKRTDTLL
Summary of the method: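 SPA beads with BHK Amylin 3(a)/CRE-luc cell membranes (35 ng/μL final) in 50 mM Hepes pH 7.4, 1 mM CaCl2, 5 mM MgCl₂, 0.1% OA, 0.02% Tween20.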

Binder | IC50 [nM]
B1 | 0.396
B2 | 0.082
B3 | 0.131
B4 | 0.169
B5 | 0.098
B6 | 0.697
